# Source: paper PMC4298044
# How the values were obtained:
# [1] = target: sAPPβ (sAPP fragment generated after β-secretase cleavage) (human (endogenous in CSF)); assay: co-IP + ELISA; CSF of AD and NDC subjects measured by sandwich ELISA (IBL sAPPα, IBL sAPPβ, or Novex kit that detects sAPPf and sAPPα) before and after immunoprecipitation with Sigma-Ct or IBL-β; read-out is the loss from the sample
# [2] = target: soluble full-length APP (sAPPf) (human (endogenous in CSF)) (UniProt P05067); assay: as above
# [3] = target: APP solubilized from human brain membranes (human (endogenous in brain frontal cortex)) (UniProt P05067); assay: native gel or EMSA; blue native-PAGE, NativePAGE Novex 4-16% Bis-Tris gels, samples with G-250 additive and dodecylmaltoside; brain membrane extracts and CSF; immunoblot with anti-APP antibodies
# [4] = target: APP solubilized from human brain membranes (human (endogenous in brain frontal cortex)) (UniProt P05067); assay: sucrose density gradient ultracentrifugation; continuous 5-20% sucrose gradient, 0.15 M NaCl, 50 mM MgCl2, 0.5% Brij 97, 50 mM Tris-HCl pH 7.4; 250,000 x g, 4 hr, 4°C; fractions immunoblotted; markers β-galactosidase, catalase, alkaline phosphatase
substance,measurement,setting,value
soluble full-length APP (sAPPf) (from UniProt P05067 18-770) (natural protein),percent decrease of the ELISA level of sAPPf plus sAPPα after immunoprecipitation of sAPPβ (IBL-β),[1],89%
sAPPα (sAPP fragment generated after α-secretase cleavage) (domain or fragment),percent decrease of the ELISA level after immunoprecipitation of sAPPf (Sigma-Ct),[2],33%
APP solubilized from human brain membranes (from UniProt P05067 18-770) (natural protein),stoichiometry N,[3],2
same,stoichiometry N,[4],2
sAPPβ (sAPP fragment generated after β-secretase cleavage) (domain or fragment),percent decrease of the ELISA level after immunoprecipitation of sAPPf (Sigma-Ct),[2],27%
